In this experiment the target is T1, Cytoplasmic FMR1-interacting protein 1 (CYFIP1), endogenous in MDA-MB-231 cells (human, UniProt Q7L576 1-1253).
T1 construct: Endogenous protein of a human breast cancer cell line, detected by western blot; also called SRA1
Kind of experiment: avidin-biotin pull-down with biotinylated peptide from treated MDA-MB-231 cells, western blot. The procedure: Specially, to determine the physical interaction with individual peptides, MDA-MB-231 cells were pretreated with 10 μM biotin-labeled peptides for 24 hours and lysates were incubated with immobilized avidin resin overnight at 4° C. The pull down samples were subjected to SDS-PAGE followed by Western blot analysis.
Background: In western blotting, separated proteins are transferred to a membrane and probed.

Bridges are numbered along the chain shown (N, C = ends). [ ]: non-standard residue; d: D form. The star is where a group is joined. Biotin = O=C1N[C@H]2[C@H](CS[C@H]2CCCCC(=O)*)N1; S5 = C=CCCC[C@](C)(N)C(=O)O; AEEEA = NCCOCCOCCOCC(=O)O

T1 sequence (Q7L576 whole entry): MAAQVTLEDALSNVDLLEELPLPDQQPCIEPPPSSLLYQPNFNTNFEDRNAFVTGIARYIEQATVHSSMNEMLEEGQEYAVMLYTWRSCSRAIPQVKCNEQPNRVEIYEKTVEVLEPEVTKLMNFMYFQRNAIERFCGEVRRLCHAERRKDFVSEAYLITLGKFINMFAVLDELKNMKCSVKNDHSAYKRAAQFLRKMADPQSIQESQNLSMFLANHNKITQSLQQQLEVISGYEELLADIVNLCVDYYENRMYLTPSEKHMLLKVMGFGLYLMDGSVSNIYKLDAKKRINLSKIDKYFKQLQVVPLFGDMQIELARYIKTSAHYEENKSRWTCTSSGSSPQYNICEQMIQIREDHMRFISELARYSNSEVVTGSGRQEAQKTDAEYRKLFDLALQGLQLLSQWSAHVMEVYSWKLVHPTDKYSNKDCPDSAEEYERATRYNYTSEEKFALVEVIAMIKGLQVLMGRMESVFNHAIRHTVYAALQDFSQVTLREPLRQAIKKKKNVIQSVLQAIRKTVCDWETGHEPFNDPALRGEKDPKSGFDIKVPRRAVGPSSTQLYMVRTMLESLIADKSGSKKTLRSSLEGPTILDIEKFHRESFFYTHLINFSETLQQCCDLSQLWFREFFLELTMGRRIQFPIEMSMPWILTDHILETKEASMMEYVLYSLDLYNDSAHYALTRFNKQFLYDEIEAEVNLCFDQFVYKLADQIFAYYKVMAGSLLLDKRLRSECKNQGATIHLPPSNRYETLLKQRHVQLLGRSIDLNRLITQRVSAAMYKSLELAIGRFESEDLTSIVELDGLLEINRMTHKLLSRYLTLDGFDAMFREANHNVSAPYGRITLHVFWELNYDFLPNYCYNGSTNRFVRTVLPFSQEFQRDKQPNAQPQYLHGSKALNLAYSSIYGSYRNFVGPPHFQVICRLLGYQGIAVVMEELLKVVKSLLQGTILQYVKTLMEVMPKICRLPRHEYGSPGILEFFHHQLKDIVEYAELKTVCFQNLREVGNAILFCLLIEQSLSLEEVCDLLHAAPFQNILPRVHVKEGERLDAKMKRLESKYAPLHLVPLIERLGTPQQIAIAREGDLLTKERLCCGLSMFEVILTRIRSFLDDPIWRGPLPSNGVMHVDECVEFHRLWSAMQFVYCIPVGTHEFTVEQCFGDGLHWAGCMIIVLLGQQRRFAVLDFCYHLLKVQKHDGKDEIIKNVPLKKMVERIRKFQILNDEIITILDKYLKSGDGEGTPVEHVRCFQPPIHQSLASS

B1: SCR2, scrambled stapled control peptide for WAHM2 (peptide)
peptide: {Biotin-AEEEA}-TRAILL[S5]ITK[S5]QNELK-NH2
modifications: staple 7-11; not fully specified
notes: Negative control; also called SCR peptides
With B1, the binding result is recorded as “no binding (tested: 10 µM)”.

B2: SCR1, scrambled stapled control peptide for WAHM1 (peptide)
peptide: {Biotin-AEEEA}-SRA[S5]LLI[S5]TKIQNELK-NH2
modifications: staple 4-8; not fully specified
notes: Negative control; also called scrambled control (SCR) peptide 1; SCR peptides
For B2, the binding result was “no binding (tested: 10 µM)”.

Values taken from US20180072782A1 (UNIVERSITY OF GEORGIA RESEARCH FOUNDATION, published 2018).
